Data as given in US20140271458A1 (AbbVie / Abbott, published 2014).
Changes are numbered by the printed parent chain. Blank lines part the entries; values can stand above or below the binder they belong to.

Columns and labels:
[1] = biological target: T1, Recombinant Human IL-17 (human, UniProt Q16552 20-155, limits assumed); test: cell-based or functional assay
T1 sequence (looked up): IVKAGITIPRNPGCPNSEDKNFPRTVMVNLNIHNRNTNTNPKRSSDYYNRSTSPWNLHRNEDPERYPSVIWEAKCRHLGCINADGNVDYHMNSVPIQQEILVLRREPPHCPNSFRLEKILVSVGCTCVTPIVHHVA

[2] = biological target: T2, Recombinant Human IL-1b (human, UniProt P01584 117-269); test: cell-based or functional assay
[3] = biological target: T2, Recombinant Human IL-1b; test: SPR, Biacore T200, DVD-Ig captured, antigen 0.8-100 nM, 25 C
Protocol: (§1) The BIACORE assay (GE, Healthcare Piscataway, N.J.) determined the affinity of antibodies or DVD-Ig proteins with kinetic measurements of on-rate and off-rate constants. Binding of antibodies or DVD-Ig proteins to a target antigen (for example, a purified recombinant target antigen) was determined by surface plasmon resonance-based measurements with a Biacore T200 using running HBS-EP+buffer from GE Healthcare at 25° C. AN chemicals were obtained from GE Healthcare unless otherwise described. For example, approximately 5000 RU of goat anti-mouse IgG, (Fcγ), fragment specific polyclonal antibody (Pierce Biotechnology Inc, Rockford, Ill.) diluted in 10 mM sodium acetate (pH 4.5) was directly immobilized across a CM5 research grade biosensor chip using a standard amine coupling kit according to manufacturer's instructions. Unreacted moieties on the biosensor surface were blocked with ethanolamine. Modified carboxymethyl dextran surface in flowcell 1 was used as a reference surface. Rate constants were derived by making kinetic binding measurements at different antigen concentrations ranging from 0.8-100 nM. Binding was recorded as a function of time and kinetic rate constants were calculated. In this assay, association rate was evaluated for 5 minutes and dissociation was monitored for 10 minutes. For kinetic screening analysis, rate equations derived from the 1:1 binding model were fitted simultaneously to association and dissociation phases of all injections (using global fit analysis with Rmax fit locally to account for capture variations) with the use of Biaevaluation software. Purified antibodies or DVD-Ig proteins were diluted in HEPES-buffered saline for capture across goat anti-mouse IgG specific reaction surfaces. Antibodies or DVD-Ig proteins to be captured as a ligand were injected over reaction matrices at a flow rate of 5 μl/minute. The association and dissociation rate constants, kₒₙ (M⁻¹s⁻¹) and koff (s⁻¹) were determined under a continuous flow rate of 50 μl/minute. Rate constants were derived by making kinetic binding measurements at different antigen concentrations ranging from 0.8-100 nM. Binding was recorded as a function of time and kinetic rate constants were calculated. In this assay, association rate was evaluated for 5 minutes and dissociation was monitored for 10 minutes.

[4] = biological target: T1, Recombinant Human IL-17; test: as above
Protocol: as §1

[5] = biological target: T1, Recombinant Human IL-17; test: SPR, Biacore T200, antibody captured, antigen 0.8-100 nM, 25 C
Protocol: as §1

[6] = biological target: T2, Recombinant Human IL-1b; test: as above
Protocol: as §1

- C-Terminal VD IL17 Neutralization Assay (IC50 nM) [1]: 0.068 nM
- N-Terminal VD IL-1β Neutralization Assay (IC50 nM) [2]: 0.018 nM
- Kd [3]: 0.034 nM
- koff [3]: 1.8e-05 s⁻¹
- kon [3]: 540000 M⁻¹ s⁻¹
- Kd [4]: < 4.8 pM
- koff [4]: < 1e-06 s⁻¹
- kon [4]: 210000 M⁻¹ s⁻¹
B2: DVD3418 (bispecific antibody, human IgG1)
heavy: EVQLVESGGGVVQPGRSLRLSCSASGFIFSRYDMSWVRQAPGKGLEWVAYISHGGAGTYYPDSVKGRFTISRDNSKNTLFLQMDSLRAEDTAVYYCARGGVYKGYFDVWGQGTPVTVSSGGGGSGGGGSEVQLVQSGAEVKKPGSSVKVSCKASGGSFGGYGIGWVRQAPGQGLEWMGGITPFFGFADYAQKFQGRVTITADESTTTAYMELSGLTSDDTAVYYCARDPNEFWGGYYSTHDFDSWGQGTTVTVSSASTKGPSVFPLAPSSKSTSGGTAALGCLVKDYFPEPVTVSWNSGALTSGVHTFPAVLQSSGLYSLSSVVTVPSSSLGTQTYICNVNHKPSNTKVDKKVEPKSCDKTHTCPPCPAPEAAGGPSVFLPPPKPKDTLMISRTPEVTCVVVDVSHEDPEVKFNWYVDGVEVHNAKTKPREEQYNSTYRVVSVLTVLHQDWLNGKEYKCKVSNKALPAPIEKTISKAKGQPREPQVYTLPPSREEMTKNQVSLTCLVKGFYPSDIAVEWESNGQPENNYKTTPPVLDSDGSFFLYSKLTVDKSRWQQGNVFSCSVMHEALHNHYTQKSLSLSPGK
light: DIQMTQSPSSLSASVGDRVTITCRASGNIHNYLTWYQQTPGKAPKLLIYNAKTLADGVPSRFSGSGSGTDYTFTISSLQPEDIATYYCQHFWSIPYTFGQGTKLQITRGGSGGGGSGEIVLTQSPDFQSVTPKEKVTITCRASQDIGSELHWYQQKPDQPPKLLIKYASHSTSGVPSRFSGSGSGTDFTLTINGLEAEDAGTYYCHQTDSLPYTFGPGTKVDIKRTVAAPSVFIFPPSDEQLKSGTASVVCLLNNFYPREAKVQWKVDNALQSGNSQESVTEQDSKDSTYSLSSTLTLSKADYEKHKVYACEVTHQGLSSPVTKSFNRGEC
notes: human kappa; also called DVD3418H; DVD3418L

- C-Terminal VD IL17 Neutralization Assay (IC50 nM) [1]: 0.048 nM
B3: AB420 (antibody, V domains shown)
VH: EVQLVQSGAEVKKPGSSVKVSCKASGGSFGGYGIGWVRQAPGQGLEWMGGITPFFGFADYAQKFQGRVTITADESTTTAYMELSGLTSDDTAVYYCARDPNEFWGGYYSTHDFDSWGQGTTVTVSS
VL: EIVLTQSPDFQSVTPKEKVTITCRASQDIGSELHWYQQKPDQPPKLLIKYASHSTSGVPSRFSGSGSGTDFTLTINGLEAEDAGTYYCHQTDSLPYTFGPGTKVDIKR

- Kd [5]: 0.86 pM
- koff [5]: 5.3e-06 s⁻¹
- kon [5]: 6.2e+06 M⁻¹ s⁻¹
B4: AB461 (antibody, V domains shown)
VH: EVQLVQSGAEVKKPGESVKISCKASGGSFRSYGISWVRQAPGQGLEWMGGITHFFGITDYAQKFQGRVTITADESTTTAYMELSGLTSDDTAVYYCAREPNDFWGGYYDTHDFDSWGQGTTVTVSS
VL: B3 VL with D28N, P43S, T55I, G84A, T91S, S93T, Y96H, P100Q
notes: Parent anti-IL-17 antibody; also called AB461VH

- N-Terminal VD IL-1β Neutralization Assay (IC50 nM) [2]: 0.424 nM
- Kd [6]: 0.14 nM
- koff [6]: 0.00056 s⁻¹
- kon [6]: 4e+06 M⁻¹ s⁻¹
B6: AB272 (antibody, V domains shown)
VH: EVQLVESGGGLVQPGGSLRLSCAVSGFTLSDYGVSWIRQAPGKGLEWLGLIWGGGDTYYNSPLKSRLTISKDNSKSTVYLQMNSLRAEDTAVYYCAKQRTLWGYDLYGMDYWGQGTLVTVSS
VL: ETTVTQSPSSLSASVGDRVTITCITSTDIDVDMNWYQQKPGKPPKLLISQGNTLRPGVPSRFSSSGSGTDFTFTISSLQPEDFATYYCLQSDNLPLTFGQGTKLEIKR
notes: Parent anti-IL-1β antibody; also called AB272VH

- C-Terminal VD IL17 Neutralization Assay (IC50 nM) [1]: 0.031 nM
- Kd [5]: 4.6 pM
- koff [5]: 1.3e-05 s⁻¹
- kon [5]: 2.7e+06 M⁻¹ s⁻¹
B8: AB273 (antibody, V domains shown)
VH: EVQLVQSGAEVKKPGSSVKVSCKASGYTFTDYEIHWVRQAPGQGLEWMGVNDPESGGTFYNQKFDGRVTLTADESTSTAYMELSSLRSEDTAVYYCTRYSKWDSFDGMDYWGQGTTVTVSS
VL: DIQMTQSPSSLSASVGDRVTITCRASSGIISYIDWFQQKPGKAPKRLIYATFDLASGVPSRFSGSGSGTDYTLTISSLQPEDFATYYCRQVGSYPETFGQGTKLEIKR
notes: Parent anti-IL-17 antibody; also called AB273VH

Further lines, the binder ahead of its results:

B1: DVD3415 (bispecific antibody, human IgG1)
heavy: B2 heavy with A88P, A92G, Y95F, Y102T
light: B2 light
notes: human kappa; also called DVD3415H; DVD3415L
- C-Terminal VD IL17 Neutralization Assay (IC50 nM) [1]: 0.091 nM
- N-Terminal VD IL-1β Neutralization Assay (IC50 nM) [2]: 0.027 nM
- Kd [3]: 0.051 nM
- koff [3]: 3.8e-05 s⁻¹
- kon [3]: 740000 M⁻¹ s⁻¹
- Kd [4]: < 4.8 pM
- koff [4]: < 1e-06 s⁻¹
- kon [4]: 210000 M⁻¹ s⁻¹

B5: AB270 (antibody, V domains shown)
VH: EVQLQESGPGLVKPSETLSLTCTVSGFSLSDYGVSWIRQPPGKGLEWLGLIWGGGDTYYNSPLKSRLTISKDNSKSQVSLKLSSVTAADTAVYYCAKQRTLWGYDLYGMDYWGQGTLVTVSS
VL: B6 VL with E1D, T3Q
notes: Parent anti-IL-1β antibody; also called AB270VH
- N-Terminal VD IL-1β Neutralization Assay (IC50 nM) [2]: 0.239 nM
- Kd [6]: 0.08 nM
- koff [6]: 0.00053 s⁻¹
- kon [6]: 6.6e+06 M⁻¹ s⁻¹

B7: AB271 (antibody, V domains shown)
VH: B5 VH
VL: DTVVTQSPAFLSVTPGEKVTITCITSTDIDVDMNWYQQKPDQPPKLLISQGNTLRPGVPSRFSSSGSGTDFTFTISSLEAEDAATYYCLQSDNLPLTFGQGTKLEIKR
notes: Parent anti-IL-1β antibody; also called AB271VH
- N-Terminal VD IL-1β Neutralization Assay (IC50 nM) [2]: 0.301 nM
- Kd [6]: 0.11 nM
- koff [6]: 0.00051 s⁻¹
- kon [6]: 4.6e+06 M⁻¹ s⁻¹
